Read-outs that look alike come from different tables or passages of the source.
T1: murine PD-1 protein (murine, UniProt Q02242 25-167, limits assumed)
T1 construct: bought
T1 sequence (looked up): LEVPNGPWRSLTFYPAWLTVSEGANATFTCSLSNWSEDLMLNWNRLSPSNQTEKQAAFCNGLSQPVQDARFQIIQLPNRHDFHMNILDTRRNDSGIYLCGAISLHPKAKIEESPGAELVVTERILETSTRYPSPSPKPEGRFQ

T2: ICOS (UniProt Q9Y6W8 21-140, limits assumed)
T2 construct: bought
T2 sequence (looked up): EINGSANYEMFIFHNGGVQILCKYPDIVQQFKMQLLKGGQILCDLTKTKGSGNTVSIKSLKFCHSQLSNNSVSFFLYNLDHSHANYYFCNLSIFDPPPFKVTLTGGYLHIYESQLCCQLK

B1: NB194 (Fc fusion)
heavy: QVQLVETGGGLVRAGGSLRLSCTASGRPFSIYDMGWFRQAPDKERESVAVINLSRGDTYYADSVKGRFTISLDSAKNTVYLQMNSLKPEDTAVYSCGVDRRQYGLGIPPLADHWGQGTQVTVSS
notes: not shown: IgG4 constant region of vector pCDNA3.4-IgG4
B2: NB194-P29 (Fc fusion)
heavy: QLQLVESGGGSAQAGGSLTLSCTASGHSFSIYDMGWFRQAADKERESVAVINFGRGTTYYAESVKGRFTISLDSAKNTVYLQMNTLKPEDTAVYSCGIDRRQYGLGIPPLADHWGQGSQVTVSS
notes: as for B1

How the values were obtained:
PD-1.His = target: T3, PD-1.His (UniProt Q15116 25-170, limits assumed); experiment: SPR, antibody captured on protein A, PD-1.His in flow
T3 construct: not shown: His tag
T3 sequence (Q15116 25-170 limits assumed): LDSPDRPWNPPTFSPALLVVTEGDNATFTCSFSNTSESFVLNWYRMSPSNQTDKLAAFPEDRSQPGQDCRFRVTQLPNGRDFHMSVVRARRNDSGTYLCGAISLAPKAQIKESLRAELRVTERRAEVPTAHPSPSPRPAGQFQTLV

[1] = target: PD-1 on GS-J2/PD1 effector cells (UniProt Q15116 25-288, limits assumed); experiment: cell-based or functional assay
PD-1 on GS-J2/PD1 effector cells, sequence (Q15116 25-288 limits assumed): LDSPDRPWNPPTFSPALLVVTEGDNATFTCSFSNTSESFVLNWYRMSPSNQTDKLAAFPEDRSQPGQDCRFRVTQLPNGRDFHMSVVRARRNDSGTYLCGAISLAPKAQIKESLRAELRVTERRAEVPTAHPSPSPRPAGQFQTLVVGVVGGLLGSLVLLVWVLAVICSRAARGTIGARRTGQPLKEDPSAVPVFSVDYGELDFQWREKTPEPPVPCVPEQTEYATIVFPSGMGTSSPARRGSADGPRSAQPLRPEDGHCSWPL

PD-1 [2] = target: T4, PD-1 (UniProt Q15116 25-170, limits assumed); experiment: SPR; set-up and antigen form not restated
T4 construct: also called PD-1 protein
T4 sequence (Q15116 25-170 limits assumed): as the sequence (Q15116 25-170 limits assumed) above

CD28 = target: T5, CD28 (UniProt P10747 19-152); experiment: ELISA on coated protein, anti-human Fc HRP
T5 construct: bought

murine PD-1 protein = target: T1, murine PD-1 protein; experiment: ELISA on coated protein, anti-human Fc HRP
ICOS = target: T2, ICOS; experiment: ELISA on coated protein, anti-human Fc HRP
CTLA-4 = target: T6, CTLA-4 (UniProt P16410 36-161, limits assumed); experiment: ELISA on coated protein, anti-human Fc HRP
T6 construct: bought
T6 sequence (P16410 36-161 limits assumed): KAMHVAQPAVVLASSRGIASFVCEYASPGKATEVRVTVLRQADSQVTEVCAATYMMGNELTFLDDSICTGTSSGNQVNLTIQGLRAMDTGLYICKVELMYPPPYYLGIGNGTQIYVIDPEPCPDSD

PD-1 [3] = target: T4, PD-1; experiment: SPR; set-up and antigen form not restated; remark: listed apart in the source
PD-1 [4] = target: T4, PD-1; experiment: SPR; set-up and antigen form not restated; remark: listed apart in the source

Row | Binder | Kd (PD-1.His) [nM] | koff (PD-1.His) [s⁻¹] | kon (PD-1.His) [M⁻¹ s⁻¹] | Reporter Gene Assay EC50 (luciferase) [1] [nM] | Kd (PD-1 [2]) [nM] | koff (PD-1 [2]) [s⁻¹] | kon (PD-1 [2]) [M⁻¹ s⁻¹] | binding result (CD28) | binding result (murine PD-1 protein) | binding result (ICOS) | binding result (CTLA-4) | Kd (PD-1 [3]) [nM] | koff (PD-1 [3]) [s⁻¹] | kon (PD-1 [3]) [M⁻¹ s⁻¹] | fold increase in affinity compared to NB194 (PD-1 [4]) [fold]
1 | B1 | 0.494 | 0.000105 | 212000 | 7 | 0.531 | 7.36e-05 | 139000 | no binding | no binding (tested: 0.1µg) | no binding | no binding |  |  |  | 
2 | B2 |  |  |  |  | 0.118 | 2.86e-05 | 243000 |  |  |  |  | 0.151 | 4.37e-05 | 290000 | 5

Reference: patent publication EP4269437A1 (Zhejiang Nanomab Technology Center Co. Ltd., dated 2023)
